In patent publication US20160237419:

Tested on: supercharged variant of human trypsinogen-1 (PRSS1 sc)
Sequence (chain, as listed by the source mutant): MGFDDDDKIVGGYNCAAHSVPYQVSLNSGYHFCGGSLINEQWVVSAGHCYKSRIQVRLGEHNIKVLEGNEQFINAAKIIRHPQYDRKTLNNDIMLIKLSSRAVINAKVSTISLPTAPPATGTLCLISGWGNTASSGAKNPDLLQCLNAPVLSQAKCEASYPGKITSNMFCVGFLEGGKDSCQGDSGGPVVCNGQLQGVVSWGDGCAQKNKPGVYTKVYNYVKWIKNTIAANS

Question: For trypsin, which “autoactivation (trypsin activity on CBZ-GPR-pNA after incubation with trypsin)” value is on record?
Answer: The value was “PRSS1 sc (SEQ ID NO 01) does not show a significant autoactivation”.
